Results taken from patent publication US12371675B2, “Process and microorganism for synthesis of adipic acid from carboxylic acids” (THE GOVERNING COUNCIL OF THE UNIVERSITY OF TORONTO, priority 2015, dated 2025).

B1: SM2011_b20423: aminotransferase (AT) from Sinorhizobium meliloti (protein)
chain: MLERSNELTAWDRDHFFHPSTHMGMHARGETPTRVIGGGEGVYITDISGKRSLDAFAGLYCVNVGYGRQKIADAIAEQAKNLAYYHAYVGHGTEASIRLSKMIIDRAPEGMSRVYFGLSGSDANETNIKLIWYYNNILGRPEKKKIISRWRGYHGSGVMTGSLTGLHLFHNAFDLPRAPILHTEAPYYFRRPDRSMSEEQFSQYCADKLEEMILAEGPDTVAAFIGEPILGTGGIVPPPKGYWEKIQAVLQKYDILLVADEVVTGFGRLGTMFGSDHYGIKPDLITIAKGLTSAYAPLSGTIVSDKLWQVLVKGSDELGAIGHGWTYSAHPICAAAGIANLELIDELGIVENAGSTGAYFRAELQKAVGDHRHVGEVRGDGLMAAIEFVEDRDDRAFFDPGRKVGPQVAAALLERGVIGRAMPQGDILGFAPPLCLTRDEADIVVKAAADTIQSVLGR
B2: SM2011_b21186: aminotransferase (AT) from Sinorhizobium meliloti (protein)
chain: MTSLTDRKNAAISRGVGMTTQVYADRAENAEIWDKEGNRYIDFAAGIAVVNTGHRHPKVIAAVKAQLDRFTHTCHQVVPYENYVHLAERLNAIVPGDFAKKTIFVTTGAEAVENAVKIARAATGRQAVVAFGGGFHGRTFMGMALTGKVVPYKVGFGAMPADVFHAPFPIELHGVTVEQSLSALKKLFAADVDPARVAAIIIEPVQGEGGFYPVPTAFMKALREVCDQHGILLIADEVQTGFARTGKLFAMEHHGVAPDLTTMAKSLAGGFPLAAVTGRAEIMDAPGPGGLGGTYGGNPLGIAAAHAVLDVIAEENLCERANQLGNRLKQRLAAIREKAPEIVDIRGPGFMNAVEFNDVRTNLPSAEFANKVRLLALEKGLILLTCGVHGNVIRFLAPITIQDEVFAEALDTIEASILEARG
B3: Spo3471: aminotransferase (AT) from Ruegeria pomeroyi (protein)
chain: MATITNHMPTAELQALDAAHHLHPFSANNALGEEGTRVITRARGVWLNDSEGEEILDAMAGLWCVNIGYGRDELAEVAARQMRELPYYNTFFKTTHVPAIALAQKLAELAPGDLNHVFFAGGGSEANDTNIRMVRTYWQNKGQPEKTVIISRKNAYHGSTVASSALGGMAGMHAQSGLIPDVHHINQPNWWAEGGDMDPEEFGLARARELEEAILELGENRVAAFIAEPVQGAGGVIVAPDSYWPEIQRICDKYDILLIADEVICGFGRTGNWFGTQTMGIRPHIMTIAKGLSSGYAPIGGSIVCDEVAHVIGKDEFNHGYTYSGHPVAAAVALENLRILEEENILDHVRNVAAPYLKEKWEALTDHPLVGEAKIVGMMASIALTPNKASRAKFASEPGTIGYICRERCFANNLIMRHVGDRMIISPPLVITPAEIDEMFVRIRKSLDEAQAEIEKQGLMKSAA
B4: Mll7127: aminotransferase (AT) from Rhizobium loti (protein)
chain: MLNQSNELNAWDRDHFFHPSTHMGTHARGESPTRIMAGGEGVTVWDNNGRKSIDAFAGLYCVNVGYGRQKIADAIATQAKNLAYYHAYVGHGTEASITLAKMIIDRAPKGMSRVYFGLSGSDANETNIKLIWYYNNVLGRPEKKKIISRWRGYHGSGVMTGSLTGLDLFHNAFDLPRAPVLHTEAPYYFRRTDRSMSEEQFSQHCADKLEEMILAEGPETIAAFIGEPILGTGGIVPPPAGYWEKIQAVLKKYDVLLVADEVVTGFGRLGTMFGSDHYGIKPDLITIAKGLTSAYAPLSGVIVADRVWQVLVQGSDKLGSLGHGWTYSAHPICVAAGVANLELIDEMDLVTNAGETGAYFRAELAKAVGGHKNVGEVRGDGMLAAVEFVADKDDRVFFDASQKIGPQVATALAASGVIGRAMPQGDILGFAPPLCLTREQADIVVSKTADAVKSVFANL
B5: Syrb2: aminotransferase (AT) from Pseudomonas syringae (protein)
chain: MSKKFALTAEQRASFEKNGFIGPFDAYSPEEMKETWKRTRLRLLDRSAAAYQDLDAISGGTNIANYDRHLDDDFLASHICRPEICDRVESILGPNVLCWRTEFFPKYPGDEGTDWHQADTFANASGKPQIIWPENEEFGGTITVWTAFTDANIANGCLQFIPGTQNSMNYDETKRMTYEPDANNSVVKDGVRRGFFGYDYRQLQIDENWKPDEASAVPMQMKAGQFIIFWSTLMHASYPHSGESQEMRMGFASRYVPSFVHVYPDSDHIEEYGGRISLEKYGAVQVIGDETPEYNRLVTHTTRGKKFEAV
B6: gabT: aminotransferase (AT) from Escherichia coli (protein)
chain: MNSNKELMQRRSQAIPRGVGQIHPIFADRAENCRVWDVEGREYLDFAGGIAVLNTGHLHPKVVAAVEAQLKKLSHTCFQVLAYEPYLELCEIMNQKVPGDFAKKTLLVTTGSEAVENAVKIARAATKRSGTIAFSGAYHGRTHYTLALTGKVNPYSAGMGLMPGHVYRALYPCPLHGISEDDAIASIHRIFKNDAAPEDIAAIVIEPVQGEGGFYASSPAFMQRLRALCDEHGIMLIADEVQSGAGRTGTLFAMEQMGVAPDLTTFAKSIAGGFPLAGVTGRAEVMDAVAPGGLGGTYAGNPIACVAALEVLKVFEQENLLQKANDLGQKLKDGLLAIAEKHPEIGDVRGLGAMIAIELFEDGDHNKPDAKLTAEIVARARDKGLILLSCGPYYNVLRILVPLTIEDAQIRQGLEIISQCFDEAKQ
B7: EREDCK: 2-enoate reductase (ERED) from Clostridium kluyveri DSM 555 (protein)
chain: MKNKSLFEPIKIGNMEVKNKIAMAPMGAFGLVDNECCFNQRAVDYYVERAKGGTGLIITSVVKVENELDKVLTGVLPITSINPAKFIMTSSEMTERVHAYGSKIFLQLSMGFGRSGAPGGLLTSQPVSASAVPNYWDPTVTCRELTTSEVEWIVEKFAEGAKIAHKAGFDGVEIHAVHEGYLLDQFTLSIFNRRTDKYGGDLRGRLQLPIEIVEAIKTEVGSNFPVGLRYSVKSCIKDWGQGGLAEEDYVEKGRDLEEGLEAAKILEAAGYDAFNADLGTYDAWYWAHPPLYQKDGLYLPYTKELKKVVKIPVMVAGKMGMPDVAEGALEDEAADMVTLGRPLLCDAYWPKKVFTGQIDRIRPCIGCHTGCMGRGFEGRPLSCTVNPAAGRERYYEVKPAAAPKKVMIVGGGVAGMEAARITAMRGHKVSMYEGTKELGGQVIPASVPDFKIDDRRLLDWYRNEMKELKVKLVLDTNVTEEVVEKEKPDVVIIATGAKEIKLNLPGIEKDKVATVIEVLKGSKQVGENVLMVGGGLAGCETALYLAKQGKKVTIIEARDTILNAGKPVPHMNKIMLIDLLKNSGVNIITETSLLEVTDRGAILIDNKFKKQNIDADTVVIAVGFKADRELYNKLRDKVADLYLVGDANESANIMNAIWSANEIALNC

Test: AT activity coupled with alanine and glutamate dehydrogenases
Format: biochemical
Conditions: 10 mM adipaldehyde, alanine and glutamate amino-donors; ND = no activity was detected
For B1, the “Adipaldehyde 10 mM U/mg” value was 0.162 ± 0.002 U/mg. For B2, the “Adipaldehyde 10 mM U/mg” value was 0.051 ± 0.014 U/mg. With B3 the “Adipaldehyde 10 mM U/mg” value was 0.021 ± 0.001 U/mg. For B4, the “Adipaldehyde 10 mM U/mg” value was 0.063 ± 0.001 U/mg. For B5, the “Adipaldehyde 10 mM U/mg” value was 0.040 ± 0.001 U/mg. In the case of B6, the “Adipaldehyde 10 mM U/mg” value is reported as 0.337 ± 0.008 U/mg.

Test: Whole-cell biotransformation of muconic acid by E. coli expressing EREDs
Format: cell-based
Conditions: 0.7 mM, 24-hr incubation
Experimental: After a 24-hr incubation, no muconic acid or 2-hexenedioic acid were detected in the culture, and a 99% yield of adipic acid was obtained (FIGS. 8a, 8b, and 8c). […] The 3-hexenedioic acid-like compound appears to be an inefficient substrate for these EREDS. This is similar to the mutated 2,4-dienoyl-CoA reductases from E. coli, which catalyze hydrogenation of 2,4-dienoyl CoA into 3-enoyl CoA (Tu, X., Hubbard, P. A., Kim, J. J. P. & Schulz, H. Two distinct proton donors at the active site of Escherichia coli 2,4-dienoyl-CoA reductase are responsible for the formation of different products. Biochemistry 47, 1167-1175 (2008).).
With B7 the “yield of adipic acid from trans,trans-muconic acid” value was 99%.
